The supplement of paper PMC12764529
± gives the half width of the 95% confidence interval.

How the values were obtained:
[1] = folding stability dG unfold from chymotrypsin proteolysis; higher = more stable
Outline: (§1)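 Designed mini-proteins with no cysteine and under 80 residues were kept only if AlphaFold2 dimer inter-PAE was above 15. In a PA-tagged cDNA display construct, they were digested with trypsin and chymotrypsin and then sequenced. K50 was inferred by Bayesian fitting of counts, and unfolding free energy was derived per protease or combined against a sequence-predicted unfolded-state K50 and a shared folded-state K50.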

[2] = folding stability dG unfold from trypsin proteolysis; higher = more stable
Outline: as §1

[3] = folding stability dG unfold (combined trypsin and chymotrypsin); higher = more stable
Outline: as §1

Sequence	folding stability dG unfold [1]	folding stability dG unfold [2]	folding stability dG unfold [3]
ATVTITDVSFDPETNTITVTVTVTGPDGTTTTFTATFRIEPAPPPAPPAPVYVVDDDGKVYNLDTGEWKDVS [r1_270_TrROS_Hall]	2.3 ± 0.037 kcal/mol	2.12 ± 0.048 kcal/mol	2.21 ± 0.054 kcal/mol
ATVTVEKLPDGYRVTVTIGATYIDPETGKPVELSAPVTAFVPPEVPDPEVAAKRAAAEALAEFLAALPEGGS [r1_414_TrMRF]	1.74 ± 0.023 kcal/mol	2 ± 0.057 kcal/mol	1.85 ± 0.091 kcal/mol
DWLIRIKFTYKGPDGNKHEMKIIVRVPESPEQAKEEVEDIARMIMEEQGYPPENIKKIKVEVIPPGEELTPS [r1_159_TrROS]	4.203 ± 0.041 kcal/mol	3.46 ± 0.1 kcal/mol	3.91 ± 0.14 kcal/mol
EAFEKAIEAAIEAAEKGEKETEITLPLPDGKAIRVHATVEVKDGKPVRVDIHVELYGPNNVPYPFTLTITAS [r1_254_TrMRF]	2.83 ± 0.13 kcal/mol	2.37 ± 0.13 kcal/mol	2.38 ± 0.18 kcal/mol
EKYIVKIKITVRRKVETETLPDGSKKTRYETKTLEIEIEVSLEELKKLLEELNLPEDEITSVEIEVYPEEES [r1_351_TrROS_Hall]	4.58 ± 0.32 kcal/mol	3.3 ± 0.24 kcal/mol	4.31 ± 0.73 kcal/mol
EMTEEELREKLPELSPEELEELARKLAEELGIEEVEEVEVVSVKPDGTIEVKVKLKDGEELTIEIPLEELLS [r1_435_TrROS_Hall]	2.07 ± 0.15 kcal/mol	2.8 ± 0.26 kcal/mol	2.47 ± 0.22 kcal/mol
ERDLIVIAGDDLTPEQLRELLEELGFRPEDAEIFREGDALLIVLPDAVILVVRPPPLPVLSEDDPELLEEAS [r1_57_TrMRF]	3.28 ± 0.23 kcal/mol	3.22 ± 0.16 kcal/mol	3.19 ± 0.2 kcal/mol
ETIYLSSSNPEEVIKALKEAASKGKTVVVEANPEFFKEFIAQGFKVEKILKIEPIPGGDGYRAEIKISPGGS [r1_173_TrMRF]	1.95 ± 0.063 kcal/mol	1.64 ± 0.082 kcal/mol	1.97 ± 0.14 kcal/mol
FKFKITELSFNPEWGYIHFNVKVEGPDGQPQTFPIMIRIRIPPPPPPPPPPMRADPDGKVRNPDDGKEHDAS [r1_270_TrROS]	4.9 ± 0.27 kcal/mol	3.3 ± 0.1 kcal/mol	4.26 ± 0.63 kcal/mol
KTYTIDEIAEKLGMSKEELKNMSAEEIKEALKKLLPPEEIEKVEISYNEKDKKVTITVTLKNGEKVEITIDS [r1_340_TrROS_Hall]	5.06 ± 0.23 kcal/mol	4.04 ± 0.71 kcal/mol	–
SAGGDVGLEEKAREIAEELREEISKKLGVNVKVTEVKVEYDPKTGKYTVTVTITLPGGETITITVPESAGGS [r8_372_JUSTAS]	4.36 ± 0.54 kcal/mol	3.85 ± 0.32 kcal/mol	–
SAGGKPKKKPPPVIEIVDIRVEYDPETKEVRITVKIRLPNGETLTLTITVPPGTTLEELLEKLKELLSSAGG [r13_578_TrROS_Hall]	2.71 ± 0.11 kcal/mol	4.11 ± 0.61 kcal/mol	–
SAGGSAGGDPNKPPPPKQIEIPIPPDNITDVEPNPDGFYFMEFNLPDGDSITIIVYPDGNIHIMSAGGSAGG [r6_119_TrROS]	4.25 ± 0.34 kcal/mol	2.83 ± 0.28 kcal/mol	–
SAGGSAGGSAGGKKKLKIKIEIKIEEKIKKTPNGKLEKEKKIEITKIIEIEPDSPLLKKLSAGGSAGGSAGG [r7_889_TrROS_Hall]	0.948 ± 0.29 kcal/mol	2.17 ± 0.14 kcal/mol	–
SAGGSAGGSAGMITIYAPPSVPVEEVREEVKEKIKKENPNDPKEVKGVEVDPNGSLEELESAGGSAGGSAGG [r17_43_JUSTAS]	-0.655 ± 0.31 kcal/mol	-0.286 ± 0.12 kcal/mol	–
SAGSPIDLGEVEVEEKPVETDPATGLTTTETVITAPDGRPVFVKYTTKDPATGTTTVTETPVGVDPELTSAG [r5_200_JUSTAS]	–	-0.556 ± 0.096 kcal/mol	< -1 kcal/mol
SAGSSSTTIEVPVGDPAKAGSVEEYKEKLIKEGFSESDVPTATPLPDGTRLVTFKSPSTTVTLVVPLGESAG [r5_144_JUSTAS]	–	-0.341 ± 0.056 kcal/mol	-0.846 ± 0.2 kcal/mol
SAGSTVEVLEERPLEDGSVLVRVRVDDAAPDGSPVAVVDVLVLPGGEAVMTFPDGTPVRLPLSELGLPPSAG [r5_137_JUSTAS]	–	0.108 ± 0.14 kcal/mol	-0.319 ± 0.2 kcal/mol
SAGVTVERKPGDGSLTVTVPADDGPLTIEVDLLPNTGTLKATVTYDDGTPATYTFPGGTLEDIIERLHSAGG [r19_159_TrMRF]	–	-0.0867 ± 0.088 kcal/mol	-0.153 ± 0.22 kcal/mol
SAKIPAEEIAEEIAENFGFEPVEVDEIDPDEGKIIIRFPGWQIEVEVDPEDGEIEIEMEFYDPEDGKPFSAG [r14_270_TrROS]	–	0.46 ± 0.045 kcal/mol	-0.0386 ± 0.18 kcal/mol
SAKLTPEEIEELAEKLAKELAEKEGIEKVEVKVEKKEDGKVTVEIRFEKNKKTIRIEFENGEVKIVEIESAG [r14_925_TrROS_Hall]	–	2.62 ± 0.39 kcal/mol	2.97 ± 0.72 kcal/mol

Sequence	folding stability dG unfold [1]	folding stability dG unfold [2]	folding stability dG unfold [3]
SAMDIEIEPTEGMMEIKLPGKEIHIMQHPNYMHIQIKYPEGEPVSIPIDPNSPPEDMIDNLLKLLEKAGSAG [r14_618_TrROS]	–	0.425 ± 0.042 kcal/mol	-0.499 ± 0.55 kcal/mol
SAMLVVLKDPKTGKLILVDPEQLSPEYLERGVEPVREIPPLEVVEVESEEEAEEIRKKYPEKILVTLGPSAG [r14_638_JUSTAS]	–	0.68 ± 0.1 kcal/mol	-0.121 ± 0.26 kcal/mol
SANFDKAPPIEVKTEVSSFPADEEKIDPKTGKKSKRKRTITPVTVTKDGKTYTSTTTTYPDGSTETTTSSAG [r14_225_JUSTAS]	–	-0.0456 ± 0.2 kcal/mol	-0.249 ± 0.24 kcal/mol
SAPDNIKVDINIERNPEDGHIRVEMEIEYPDGNEVYHSAWIDPDNGKIEIDVQVPNGKQIAEETIQIKPSAG [r14_524_TrROS]	–	0.166 ± 0.097 kcal/mol	< -1 kcal/mol
SAPVKDKNGKKREVEIHIWVPEEERKKNGTPEQIKWLARERARAAGLKPDRIKEVKIKIMPPEDMPEGFSAG [r14_446_TrROS]	–	-0.729 ± 0.54 kcal/mol	< -1 kcal/mol
SDLRNMPIEELAKRIAREHGIEDVKVEVSRTGDSLTIPIEIRDPEQGMKYKVMIMVDPPDDGRIGIGVERSA [r9_1042_TrROS]	–	0.275 ± 0.29 kcal/mol	0.0221 ± 0.42 kcal/mol
SETVTIEVEIEVKLPDGSTYRVRLTVEFDKETGKITLKMTVEYNGKTYEVELSEEEIKALLDELLKKLGLSA [r9_1136_TrROS_Hall]	–	4.22 ± 0.29 kcal/mol	> 6 kcal/mol
SFRIEPDPDGTVTVRIPKDFPNKPAEEIADYIQKAFGPGMKIDKDIKIEPDPENGWVEITVKVKLPPGAKSA [r9_1011_TrROS]	–	0.913 ± 0.16 kcal/mol	0.0899 ± 0.33 kcal/mol
SIERPGGEPVTLTVTVERPPGVRTTRTFTTPASELEARRGRDVTDEEIIAAVKEELAAAGDRALAVTVDRTS [r1_338_JUSTAS]	–	-0.807 ± 0.68 kcal/mol	< -1 kcal/mol
SKEILEAEVEEILKLLPESLKPDVPRELVFPGVKITVTKYEPVDKNKGGKKPTTVVTIELPEGPVTIPLPSA [r9_279_JUSTAS]	–	0.548 ± 0.034 kcal/mol	-0.531 ± 0.18 kcal/mol
SKTVEIPIRNPNGMQVNIMANPEKGKVMIHMGNNMPFENIKKALRELLPPGKDVDITTHPNGMAVIELKPSA [r9_933_TrROS]	–	-0.277 ± 0.19 kcal/mol	-0.734 ± 0.43 kcal/mol
SMEIKVTVEEKDGKKYVTIEIKLSEEELKGKELTEEEIEELARELAKKLGIKEVKIERLPNGTYRIVIELSA [r9_883_TrROS_Hall]	–	4.47 ± 0.39 kcal/mol	> 6 kcal/mol
SMKLKITIPLPGNNEINIEIEIKPYFDPNTKKLYFEANIKVTFTYYIPGFDKPFSFTSEFKFRFELSDDLSA [r9_140_TrMRF]	–	4.46 ± 0.16 kcal/mol	> 6 kcal/mol
SMLTSPDGTSVTIETKVSPSAGPLPPFFEQTYDPSKDTITVNAPASPEEVAAIRAAPGLETLAVTFTPAESA [r9_827_JUSTAS]	–	-0.874 ± 0.23 kcal/mol	< -1 kcal/mol
SMRLVPVPVRSADGRASVDEIRAAIREALPEGLRVDFGEEFIERALREAERRYGGRLRPDDFPILVPVLGSA [r9_197_TrMRF]	–	-0.209 ± 0.15 kcal/mol	< -1 kcal/mol
SMYRIEVVRDGKPIPREAVEAAAEAIERARGRPISPEALARELASVPNTVVTVEAYDEPGKPLGTLTFAESA [r9_1045_TrMRF]	–	-0.253 ± 0.17 kcal/mol	-0.703 ± 0.37 kcal/mol
SPIILPGASTVTINATVTVEPRDPATGTVLSSRDLPVPVTVTTNADGTVTITVDVPADVPADAAVTVDLTSA [r9_90_JUSTAS]	–	0.239 ± 0.018 kcal/mol	-0.338 ± 0.1 kcal/mol
SPKIEIEPMPPNMFIAKIRDPEKNKKVSIHIPPNMPPGQPMQVYDPDKPKWVPFNEIEELLKKGLPVEIYSA [r9_250_TrROS]	–	0.0989 ± 0.23 kcal/mol	-0.496 ± 0.98 kcal/mol
SPLTPEQIEELAKEIAQEFPNVKVKIYPNDEPIEIKAPGAEIEIWPPPGEFYIQIEFPGNGKPKQIPIPPSA [r9_1062_TrROS]	–	0.00765 ± 0.051 kcal/mol	-0.583 ± 0.25 kcal/mol
SYRPITIQMPSPEDLKKLEEAFEDDGFENVNIHRDPPGWHTITITQKGPPEQLQDRIREAFDENGFQIQPSA [r9_1003_TrROS]	–	0.0855 ± 0.11 kcal/mol	< -1 kcal/mol
